Assay results as given in patent US20140206628A1 (University of Washington, published 2014).

Target: A/WSN/1933 (H1N1) hemagglutinin (Influenza A virus A/WSN/1933 (H1N1))
Assay: gel filtration

B1: HB36.3 (Asp47Ser, Ala60Val) (designed binder)
chain: MSNAMDGQQLNRLLLEWIGAWDPFGLGKDAYDVEAEAVLQAVYETESAFDLAMRIMWIYVFAFNRPIPFPHAQKLARRLLELKQAASSPLPLE
binding result: binds
